These are literature values, as cited in article PMC7970000.

Data set [1] addresses SNX3-retromer complex (Homo sapiens) (UniProt O60493).
Another data set addresses retromer (Homo sapiens) (UniProt O75436).
In data set [2] the target is VPS29 (Homo sapiens) (UniProt Q9UBQ0).
Data set [3] shares this target. The source holds these as a separate data set.

Where two headings read alike, the source gives them in different places.

Sequence of UniProt O60493 (O60493 2-162, chain 1 of 2): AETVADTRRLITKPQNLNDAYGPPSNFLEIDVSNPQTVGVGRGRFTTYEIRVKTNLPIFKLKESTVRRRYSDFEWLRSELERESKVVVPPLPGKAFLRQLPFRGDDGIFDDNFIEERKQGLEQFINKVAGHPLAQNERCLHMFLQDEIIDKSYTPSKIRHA
Sequence of UniProt O60493 (O75436 whole entry, chain 2 of 2, further chain): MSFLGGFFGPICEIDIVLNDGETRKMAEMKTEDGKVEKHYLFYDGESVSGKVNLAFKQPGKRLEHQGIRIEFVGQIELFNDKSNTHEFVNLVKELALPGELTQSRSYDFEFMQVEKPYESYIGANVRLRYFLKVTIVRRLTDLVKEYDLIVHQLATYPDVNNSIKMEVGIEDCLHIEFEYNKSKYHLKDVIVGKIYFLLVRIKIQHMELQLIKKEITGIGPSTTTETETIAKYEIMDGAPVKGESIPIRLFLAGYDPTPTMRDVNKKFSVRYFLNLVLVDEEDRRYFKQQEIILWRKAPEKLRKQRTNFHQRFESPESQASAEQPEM
Sequence of UniProt O75436 (O75436 whole entry): as the sequence (O75436 whole entry, chain 2 of 2, further chain) above

With DMT1-II (from UniProt P49281), in data set [1], the Kd was 127 µM.
Regarding TBC1D5 (from UniProt Q92609), the Kd in the data set with retromer (Homo sapiens) is 0.335 µM; with VPS29 (Homo sapiens) [2], 20 µM.
For the substance “VARP CHPLCxCxxC motif (from UniProt Q96NW4)”, the Kd with VPS29 (Homo sapiens) [3] is 3.5 µM.
